The values that follow are results of earlier work, collected in paper PMC7252266.

The data set has as its target UROD (Homo sapiens) (UniProt P06132).

The Kd is the free concentration of one partner at which half of the binding sites on the other are occupied at equilibrium, for simple one-to-one binding. Take UROD (from UniProt P06132): the Kd was 100 nM.
